In the supplement of paper PMC10724198:
± gives the standard deviation of the averaged measurements.

Test system: Saccharomyces cerevisiae
Test: protein stability index of tFT-peptide fusion (C-terminal peptide) (PSI (0-1 scale)); higher = more stable (slower turnover)
Conditions: temperature: 30 C
Method: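 MPS profiling in S. cerevisiae of the yeast C-terminome library: the last 12 aa of each annotated ORF are fused to the C-terminus of a sfGFP-mCherry timer, after a GGGS linker. Cells are FACS-sorted into 8 mCherry/sfGFP bins and deep-sequenced. PSI runs from 0 (unstable) to 1 (stable); wild type and das1Δ backgrounds, two technical replicates each.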

[1] = genetic background: das1 deletion

| Sequence | protein stability index [1] | protein stability index (genetic background: wild type) |
| --- | --- | --- |
| ASFENETVKANV [RFC3 C-terminal 12 aa] | 0.706 ± 0.019 | 0.704 ± 0.0078 |
| GRPSMVPIAELK [MLH3 C-terminal 12 aa] | 0.672 ± 0.019 | 0.714 ± 0.062 |
| IEQSFGVIEYFP [SCW11 C-terminal 12 aa] | 0.717 ± 0.037 | 0.71 ± 0.011 |
| PEYDQVKQNNKE [YLR041W C-terminal 12 aa] | 0.691 ± 0.023 | 0.676 ± 0.03 |
| TKDGEVVKESKK [PET117 C-terminal 12 aa] | 0.677 ± 0.034 | 0.676 ± 0.027 |
| EDVQLALNKHMN [YAP1 C-terminal 12 aa] | 0.685 ± 0.01 | 0.69 ± 0.0072 |
| YVRFYRGKLNNP [YOL036W C-terminal 12 aa] | 0.704 ± 0.022 | 0.7 ± 0.024 |
| QEGTFKRLALPA [THI11 C-terminal 12 aa] | 0.639 ± 0.013 | 0.65426 ± 7.7e-05 |
| KVNENWKRYGYK [FDC1 C-terminal 12 aa] | 0.6814 ± 0.0052 | 0.703 ± 0.027 |
| VRKGQEKSKKHS [SEI1 C-terminal 12 aa] | 0.678 ± 0.01 | 0.737 ± 0.06 |
| IKCKMPWSSPRQ [YOR238W C-terminal 12 aa] | 0.705 ± 0.03 | 0.744 ± 0.032 |
| AKEWDLEDPKSM [TAF9 C-terminal 12 aa] | 0.7024 ± 0.0067 | 0.726 ± 0.057 |
| GEDPYMDLMKEF [TPK3 C-terminal 12 aa] | 0.745 ± 0.013 | 0.733 ± 0.036 |
| DATSTLSSQPLD [MSP1 C-terminal 12 aa] | 0.7244 ± 0.0059 | 0.695 ± 0.037 |
| IWCAPTVDARPI [NIT1 C-terminal 12 aa] | 0.7229 ± 0.0014 | 0.6998 ± 0.0015 |
| LKSLSKYSVQNS [CTF3 C-terminal 12 aa] | 0.686 ± 0.014 | 0.678 ± 0.042 |
| NKTICLRNYHWL [YIR017W-A C-terminal 12 aa] | 0.702 ± 0.012 | 0.607 ± 0.0078 |
| MASVVKGNATSA [PHO90 C-terminal 12 aa] | 0.69425 ± 0.00061 | 0.688 ± 0.027 |
| FFRQWWDIIQSK [YMR316C-A C-terminal 12 aa] | 0.7 ± 0.025 | 0.671 ± 0.012 |
| ATSILLWYSNYS [CNM1 C-terminal 12 aa] | 0.739 ± 0.013 | 0.6973 ± 0.00096 |
| KKQLLPSKTVDN [HED1 C-terminal 12 aa] | 0.688 ± 0.013 | 0.66 ± 0.04 |

| Sequence | protein stability index [1] | protein stability index (genetic background: wild type) |
| --- | --- | --- |
| GLLVVFDRIDVK [MET7 C-terminal 12 aa] | 0.667 ± 0.015 | 0.634 ± 0.013 |
| GLKQKSTIVTVD [CDC5 C-terminal 12 aa] | 0.6917 ± 0.0015 | 0.717 ± 0.078 |
| LLPMAFGPSHLN [CDD1 C-terminal 12 aa] | 0.743 ± 0.032 | 0.76 ± 0.045 |
| AWSYLARQVLYY [YGR176W C-terminal 12 aa] | 0.6986 ± 0.0046 | 0.688 ± 0.032 |
| CDSEMFASSKDE [ERI1 C-terminal 12 aa] | 0.698 ± 0.0072 | 0.74 ± 0.053 |
| KDINLSEGNENE [URA8 C-terminal 12 aa] | 0.6774 ± 0.005 | 0.666 ± 0.067 |
| NAKSKVFSIENN [LSG1 C-terminal 12 aa] | 0.681 ± 0.039 | 0.678 ± 0.015 |
| LTARRKNRQQWE [COX23 C-terminal 12 aa] | 0.704 ± 0.022 | 0.692 ± 0.024 |
| LEWLSNSLKNST [ARF1 C-terminal 12 aa] | 0.735 ± 0.034 | 0.6802 ± 0.0039 |
| NYESVEVPAANN [YML018C C-terminal 12 aa] | 0.682 ± 0.0077 | 0.7097 ± 0.0019 |
| TKEEIMHGLQAK [RPN5 C-terminal 12 aa] | 0.682 ± 0.024 | 0.728 ± 0.01 |
| RHISRLSRLLCR [YGR273C C-terminal 12 aa] | 0.6071 ± 0.00082 | 0.621 ± 0.027 |
| VLTAGVNSVAIK [RPN11 C-terminal 12 aa] | 0.6646 ± 0.0021 | 0.63 ± 0.0097 |
| ENDPWKVVRLAP [PDX3 C-terminal 12 aa] | 0.711 ± 0.019 | 0.715 ± 0.011 |
| PIRGVTGGVYKW [MRPL22 C-terminal 12 aa] | 0.71 ± 0.012 | 0.702 ± 0.02 |
| TQEMENTKLAES [GIS1 C-terminal 12 aa] | 0.692 ± 0.01 | 0.757 ± 0.0079 |
| LSSSDDNYGSLA [SNA2 C-terminal 12 aa] | 0.702 ± 0.013 | 0.669 ± 0.034 |
| QDKRSSQAIDVL [MMS21 C-terminal 12 aa] | 0.688 ± 0.015 | 0.6684 ± 0.0019 |
| GMYSRAYETHTL [ERG7 C-terminal 12 aa] | 0.7 ± 0.012 | 0.696 ± 0.022 |
| KTYLNFADNGQI [ELM1 C-terminal 12 aa] | 0.675 ± 0.0079 | 0.721 ± 0.062 |
| EEMEEFKKLVMG [MIC19 C-terminal 12 aa] | 0.7037 ± 0.0043 | 0.6922 ± 0.00094 |

| Sequence | protein stability index [1] | protein stability index (genetic background: wild type) |
| --- | --- | --- |
| DNRPIYKRFFSS [HXT11 C-terminal 12 aa] | 0.7072 ± 0.0066 | 0.511 ± 0.018 |
| YGCIALTVVFIL [YAR069C C-terminal 12 aa] | 0.232 ± 0.0061 | 0.223 ± 0.0052 |
| GQLLSGSCLLNM [YBR226C C-terminal 12 aa] | 0.686 ± 0.013 | 0.679 ± 0.053 |
| TWFKYFKWLDMF [MRX3 C-terminal 12 aa] | 0.7723 ± 0.0025 | 0.217 ± 0.0084 |
| GVIIELGSWSAW [YDR415C C-terminal 12 aa] | 0.7055 ± 0.0066 | 0.71701 ± 0.00054 |
| QTLAPVPYETFI [RPL21A C-terminal 12 aa] | 0.718 ± 0.01 | 0.728 ± 0.013 |
| RKVVFERMETLE [MRPS16 C-terminal 12 aa] | 0.6857 ± 0.0044 | 0.683 ± 0.031 |
| TGMGAAAIFIKE [POT1 C-terminal 12 aa] | 0.688 ± 0.04 | 0.752 ± 0.049 |
| PSLRTRSSYTEE [FLR1 C-terminal 12 aa] | 0.6845 ± 0.0013 | 0.717 ± 0.043 |
| DTVKILTELFNL [SEC53 C-terminal 12 aa] | 0.707 ± 0.011 | 0.732 ± 0.062 |
| PILSQEVDRWRL [GAC1 C-terminal 12 aa] | 0.732 ± 0.011 | 0.744 ± 0.018 |
| DQPFYKSLFSRK [HXT1 C-terminal 12 aa] | 0.7117 ± 0.0036 | 0.685 ± 0.053 |
| CKSNKKHKQRQG [RTC6 C-terminal 12 aa] | 0.701 ± 0.031 | 0.601 ± 0.02 |
| FSIRSISKFIFT [YOR325W C-terminal 12 aa] | 0.649 ± 0.014 | 0.665 ± 0.051 |
| FIENVLKKRNMK [LIP5 C-terminal 12 aa] | 0.7195 ± 0.0041 | 0.7 ± 0.041 |
| RFQDGTSVVSIM [SMC2 C-terminal 12 aa] | 0.695 ± 0.011 | 0.6814 ± 0.006 |
| CKTLNYARPQSN [BNA1 C-terminal 12 aa] | 0.6906 ± 0.0025 | 0.727 ± 0.031 |
| DYDEEDPYEDPF [IKI1 C-terminal 12 aa] | 0.731 ± 0.042 | 0.6905 ± 0.0059 |
| KTDPNEPANDYR [DLD1 C-terminal 12 aa] | 0.6799 ± 0.00072 | 0.686 ± 0.032 |
